Data on one variant can be found in IntAct's records for PubMed 19759058.

B1: Poly [ADP-ribose] polymerase 1 (Mus musculus), P11103 (parent)
chain: MAEASERLYRVQYAKSGRASCKKCSESIPKDSLRMAIMVQSPMFDGKVPHWYHFSCFWKVGQSIRHPDVEVDGFSELRWDDQQKVKKTAEAGGVAGKGQDGSGGKAEKTLGDFAAEYAKSNRSMCKGCLEKIEKGQMRLSKKMVDPEKPQLGMIDRWYHPTCFVKKRDELGFRPEYSASQLKGFSLLSAEDKEALKKQLPAIKNEGKRKGDEVDGTDEVAKKKSRKETDKYSKLEKALKAQNELIWNIKDELKKACSTNDLKELLIFNQQQVPSGESAILDRVADGMAFGALLPCKECSGQLVFKSDAYYCTGDVTAWTKCMVKTQNPSRKEWVTPKEFREISYLKKLKVKKQDRIFPPESSAPITVHWPLSVTSAPTAVNSSAPADKPLSNMKILTLGKLSQNKDEAKAVIEKLGGKLTGSANKASLCISIKKEVEKMNKKMEEVKEANIRVVSEDFLQDVSASTKSLQDLLSAHSLSPWGAEVKAEPGEVVAPRGKSAAPSKKSKGCFKEEGVNKSEKRMKLTLKGGAAVDPDSGLEHSAHVLEKGGKVFSATLGLVDIVKGTNSYYKLQLLEDDKESRYWIFRSWGRLGTVIGSNKLEQMPSKEEAVEQFMKLYEEKTGNAWHSKNFTKYPKKFYPLEIDYGQDEEAVKKLTVKPGTKSKLPKPVQELVGMIFDVDSMKKALVEYEIDLQKMPLGKLSRRQIQAAYSILSEVQQPVSQGSSESQILDLSNRFYTLIPHDFGMKKPPLLNNADSVQAKVEMLDNLLDIEVAYSLLRGGSDDSSKDPIDVNYEKLKTDIKVVDRDSEEAEVIRKYVKNTHATTHNAYDLEVIDIFKIEREGESQRYKPFRQLHNRRLLWHGSRTTNFAGILSQGLRIAPPEAPVTGYMFGKGIYFADMVSKSANYCHTSQGDPIGLIMLGEVALGNMYELKHASHISKLPKGKHSVKGLGKTTPDPSASITLEGVEVPLGTGIPSGVNDTALLYNEYIVYDIAQVNLKYLLKLKFNFKTSLW
partner: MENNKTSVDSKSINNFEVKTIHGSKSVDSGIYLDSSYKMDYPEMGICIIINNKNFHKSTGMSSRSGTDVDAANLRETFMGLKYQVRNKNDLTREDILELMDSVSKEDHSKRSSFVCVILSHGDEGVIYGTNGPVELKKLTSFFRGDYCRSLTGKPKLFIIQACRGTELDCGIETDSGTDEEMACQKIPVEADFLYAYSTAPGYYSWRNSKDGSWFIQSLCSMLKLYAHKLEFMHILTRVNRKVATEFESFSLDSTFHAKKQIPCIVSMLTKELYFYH

This test covers variants of B1. As to conditions: with casp3_mouse Casp3, P70677.
With G210K, the “effect of a mutation on the interaction” value is “decreasing interaction”.
